# Measured values published in the nanobody polyreactivity screen of Harvey et al. (2022).
# Test: yeast display, Sf9 membrane polyspecificity reagent, FACS + sequencing; frameworks hold sequencing errors
# In short: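 Nanobodies from a synthetic yeast display library (Saccharomyces cerevisiae BJ5465), induced 36–48 hours with galactose, were stained 1 hour at 4 °C with 10% biotinylated, detergent-solubilized Sf9 membrane reagent, enriched on streptavidin microbeads, then FACS-sorted. Anti-HA (expression) and streptavidin (reagent binding) fluorescence set low and high (top ~1%) gates. Polyreactivity labels come from the gate of origin. Genes were colony-PCR amplified, MiSeq 2 × 250 sequenced and filtered by CDR length.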
row,Sequence,polyreactivity (PSR sort gate)
1,QVQLVESGGGLVQAGGSLRLSCAASGSTFTGYAMGWYRQAPGQERELVAAISRSGGSTYYADSVKGRFTISRDNAKNTVYLQMNSLKPEDTAVYYCNARGFTRYTVGRNYWGQGTQVTVSS,high polyreactivity
2,QVQLVESGGGLVQAGGSLRLSCAASGSTFTINAKGWYRQAPGKERELVAAISWSGGTTYYADSVKGRFTISRDNAKNTVYLQMTSLKPEDTAVYYCAARSYYGYDYWGQGTQVTVSS,high polyreactivity
3,QVQLVESGGGLVQAGGSLRLSCAASGSTFTINVMGWYRQAPGKERELVAAINGGGRTNYADSVKGRFTFSRDNAKNTVYLQMNSLKPEDTAVYYCAADGLSHVRQMDYWGQGTQVTVSS,low polyreactivity
4,QVQLVESGGGLVQAGGSLRLSCAASGSTFTIYAMGWYRQAPGTERELVATIRAGGGRTSYADSVKGRFTISRDNAKNTVYLQMNSLKPEDTAVYYCAVYVRPTRYGYWGQGTQVTVSS,high polyreactivity
5,QVQLVESGGGLVQAGGSLRLSCAASGSTFTIYAMGWYRQATGKERELVATIRAGGGRTSYADSVKGRFTISRDNAKNTVYLQMNSLKPEDTAVYYCAVYVRPTRYGYWGQGTQVTVSS,high polyreactivity
6,QVQLVESGGGLVQAGGSLRLSCAASGSTFTKNAMGWYRPAPGKERELVAVISSGGSTNYADSVKGRFTISRDNAKNTVDLQMNSLKPEDTAVYYCAAEHYILYDYLWAYDYWGQGTQVTVSS,high polyreactivity
7,QVQLVESGGGLVQAGGSLRLSCAASGSTFTLYAMGWYRQAPGTERELVAAISWSGDTTYYADSVKGRFTISRDNAKNTVYLQMNILKPEDTAVYYCAADWYNSYYYEHESWGQGTQVTVSS,high polyreactivity
8,QVQLVESGGGLVQAGGSLRLSCAASGSTFTLYARGWYRQAPGKERELVATITGSGGSTNYADSVKGRFTISRDNAKNTVYLQMNSLKPEDTAVYYCAADYAVYSFTEFNYWGQGTQVTVSS,high polyreactivity
9,QVQLVESGGGLVQAGGSLRLSCAASGSTFTLYVMGWYRQAPGKERELVAAISRGDTTNYADSVKGRFTISRDNAKNTVYLQMNSLKPEDTAVYYCAATYPTFFYWSKGYERDYWGQGTQVTVSS,low polyreactivity
10,QVQLVESGGGLVQAGGSLRLSCAASGSTFTPYAMGCYRQAPAKERELVAAINGGGTRTYYADSVKGRFTISRDHAKNTVFLQMNSLKPVDTAVYYCAARTSTSRSYPYNYWGQGTQVTGSS,high polyreactivity
11,QVQLVESGGGLVQAGGSLRLSCAASGSTFTPYAMGWYRQAPGKERELVAAISRRGGSTSYADSVKGRFTISRDNAKNTVYLQMNSLKPEDTAVYYCNKKTAASDYDYWGQGTQVTVSS,high polyreactivity
12,QVQLVESGGGLVQAGGSLRLSCAASGSTFTPYAMGWYRQAPGKERELVAAITWRTGSTRYADSVKGRFTISRDNAKNTVYLQMNSLKPEDTAVYYCAAKVTRFGAPGVNYWGQGTKVTVSS,high polyreactivity
13,QVQLVESGGGLVQAGGSLRLSCAASGSTFTRNAMGWYRQAPGKERELVAAITSSGGSTYYADSVKGRFTISRDNAKNTVYLQMNSLKPEDTAVYYCAAYPHRPRDRELDHWGQGTQVTVSS,low polyreactivity
14,QVQLVESGGGLVQAGGSLRLSCAASGSTFTRYAMGWYRQAPGKEREFVAGISWRGGSTYYADSVKGRFTISRDNAKNTVYFQMNSLKPEDTAVYYCAARSFSNIGYHGYGYWGQGTQVTVSW,high polyreactivity
15,QVQLVESGGGLVQAGGSLRLSCAASGSTFTRYGMGWYRQAPGKERELGAAITTSGSSTYYADSVKGRFTISRDNAKNTVYLQMNSLKPEDTAVYYCAADWSSWGFDYWGQGTQVTVSS,low polyreactivity
16,QVQLVESGGGLVQAGGSLRLSCAASGSTFTSNAMGWYREAPGKEREFVAAISVGGGITYYADSVKGRFTISRDNAKNTVSLQMNSLKPEDTAVYYCAADGEYPHSEDFEYWGQGTQVNVSS,low polyreactivity
17,QVQLVESGGGLVQAGGSLRLSCAASGSTFTSNAMGWYRQAPGKERELVAAISFSDASTYYADSVKGRFTISRDNAKNTVYLQMNSLKPEDTAVYYCAADSDQDAYDYWGQGTQVTVSS,low polyreactivity
18,QVQLVESGGGLVQAGGSLRLSCAASGSTFTSNAMGWYRQAPGKERELVASISWSGGRTYYADSVKGRFTISRDNAKNTVYLQMNSLKPEDTAVYYCAAASYQSRYWNYYWGQGTQVTVSS,high polyreactivity
19,QVQLVESGGGLVQAGGSLRLSCAASGSTFTSYAMGWYRQAPGKESEFVAAISWDGDNTYADSVKGRFTISRDNAKNTVYLQMNSLKPEDTAVYYCAASHQNGNFGWGYDSWGQGTQVTVSS,high polyreactivity
20,QVQLVESGGGLVQAGGSLRLSCAASGSTFTSYAMGWYRQAPRKERELVAAINYSGGSTYYADSVKGRFTISRDNAKNTVYLQMNSLKPEDTAVYYCAADGYIRQYVTYYYWGQGTQVTVSS,low polyreactivity
21,QVQLVESGGGLVQAGGSLRLSCAASGSTFTSYTMGWYRQAPGKERELVARITRGGGSTYYADSVKGRFTISRDNAKNTVYLQMNSLKPEDTAVYYCNAEGYLLPVGNTMDYWGQGTQVTVSS,low polyreactivity
22,QVQLVESGGGLVQAGGSLRLSCAASGSTFTTNAMGWYRQAPGKEREFVAAITRSSGSTYYADSVKGRFTISRDNAKNTVYLQMNSLKPEDTAVYYCAAAYRQNPSQSKSRFGYWGQGTQVTVSS,high polyreactivity

row,Sequence,polyreactivity (PSR sort gate)
1,QVQLVESGGGLVQAGGSLRLSCAASGSTFTTNAMGWYRQAPGKERELVAAISSGGRTYYADSVKGRFTISRDNAKNTVYLQMNRLKPEDTAVYYCAAEIYYSIYQGSRFYYRGQGTQVTVSS,high polyreactivity
2,QVQLVESGGGLVQAGGSLRLSCAASGSTFTTNVMGWYRQAPGKERELVAAISWSSGSTYYADSVKGRFTISRDNAKNTVYLQMNSLKPEDTAVYYCAAKSTYVVSKMNYWGQGTQVTVSS,high polyreactivity
3,QVQLVESGGGLVQAGGSLRLSCAASGSTFTTYAMAWYRQAPGKERELVAAISTNGGRTFYADSVKGRFTISRDNAKNTVYLLMNSLKAEDTAVYYCAADRAGSIMNYWGQGTQVTVSS,low polyreactivity
4,QVQLVESGGGLVQAGGSLRLSCAASGSTFTTYAMGWYRQAPGKEREFVASIRWRGGNTYYADSVKGRFTISRDNAKNTVYLQMNSLKPEDTAVYYCARRVDYISSKYGYWGQGTQVTVSS,high polyreactivity
5,QVQLVESGGGLVQAGGSLRLSCAASGSTFTTYAMGWYRQAPGKERELVAAISTNGGRTFYADSVKGRFTISRDNAKNTVYLQMISLKPEDTAVYYCAAEYGLYAPGYYYWGQGTQVTVSS,low polyreactivity
6,QVQLVESGGGLVQAGGSLRLSCAASGSTFTTYAMGWYRQSPGKERELVAVITDSGGTYYADSVKGRFTISRDNAKNTVYLQMNSLKPEDTAVYYCNRVFPPTDYEFDSWGQGTQVTVSS,low polyreactivity
7,QVQLVESGGGLVQAGGSLRLSCAASGSTFTTYPMGWYRQAPGKERELVAAISTNGGRTFYADSVKGRFTISGDNAKKTVYLQMNSLKPEDTAVYYCAAEYGLYAPGYYYWGQGTQVTVSS,low polyreactivity
8,QVQLVESGGGLVQAGGSLRLSCAASGSTFTVNAMGWYREAPGKERELVAAITTSGGSTYYADSVKGRFTISRDNAENTVYFQMNSLKPEDTAVYYCNADGPWREVERPFRKEGNYWGQGTQVTVSS,low polyreactivity
9,QVQLVESGGGLVQAGGSLRLSCAASGSTFTVNAMGWYRQAPGKDRELVADINWIGGATYYADSVKGRFTSSRDNAKNTVYLQMNSLKPEDTALYYCNADVWEYFTYSFTGFGWYDYWGQGTQVTVSS,high polyreactivity
10,QVQLVESGGGLVQAGGSLRLSCAASGSTFTVNAMGWYRQAPGKERELVAAISWRGGTTYYADSVKGRFTISRDNAKNTVYLQMNSLKPEDTAVYYCAATSYRRSGRYYYWGQGTQVTVSS,high polyreactivity
11,QVQLVESGGGLVQAGGSLRLSCAASGSTFTVNAMGWYRQAPGKERELVAAISYTDSITYYADSVKGRFTISRDNAKNTVYLQMNSLKPEDTAVYYCAVDYTVYFATYSWPYLSTHEYWGQGTQVTVSS,high polyreactivity
12,QVQLVESGGGLVQAGGSLRLSCAASGSTFTVNGMGWYRQAPGKERELVAAITWGGGSTYYADSVKGRFTISRDNAKNTVYLQMNSLKPEDTAVYYCAADDGYLFDYWGQGTQVTVSS,low polyreactivity
13,QVQLVESGGGLVQAGGSLRLSCAASGSTFTVNGMGWYRQAPGKERELVASITWSGGSTYYADSVKGRFTISRDNAKNTVYLQMNSLKPEATAVYYCAADEKLYITGYDYWGQGTQVTVSS,low polyreactivity
14,QVQLVESGGGLVQAGGSLRLSCAASGSTFTVNTMGWYRQAPGKERELVAAISFGGGPTYYADSVKGRFTISRDNAKNTVYLQMNSLKPEDTAVYSCAARGSLWNARKYYYWGQGTQVTVSS,high polyreactivity
15,QVQLVESGGGLVQAGGSLRLSCAASGSTFTVNTMGWYRQAPGKERELVDAISFGGGPTYYADSVKGRFTISRDNAKNTVYLQMNSLKPDDTAVYYCAARGYLWHARKYYYWGQGTQVTVSS,high polyreactivity
16,QVQLVESGGGLVQAGGSLRLSCAASGSTFTVYAMGWYRLAPGKERELVAAISGSGGRTYYADSVKGRFTISRDNAKNTVYLQMNSLKPEDTAVYYCIARWGYRRGYWGQGTQVTVSS,high polyreactivity
17,QVQLVESGGGLVQAGGSLRLSCAASGSTFTVYAMGWYRQAPGKERELVAAISWGGGSTNYADSVKGRFTISRDNAKNTVYLQMNSLKPEDTAVYYCNADIDVIIGSWGDYWGQGTQVTVSS,low polyreactivity
18,QVQLVESGGGLVQAGGSLRLSCAASGSTFTWNTMGWYRQAPGKEREMVAAISMRGANTYADSVKGRFTISLDNAKNTVYLEMNSLKPEDTAVYYCARDRLAIMDYNEYITRYEYWGQGTQVTVSS,low polyreactivity
19,QVQLVESGGGLVQAGGSLRLSCAASGSTFTWNVMGWYRQAPAKERELVASITSGDSTYADSVKGRFTISRDNAKNTVYLQMNSLKPEDTAVYYCNVGYDQEKYGYWGQGTQVTVSS,low polyreactivity
20,QVQLVESGGGLVQAGGSLRLSCAASGSTFTYYAMGWYRQAPGKERELVAAITGSDGRTYYADSVKGRFTISRDNAKNTVYLQMNSLKPEDTAVYYCAAYFTRYDFRWHTYYYWGQGTQVTVSS,low polyreactivity
21,QVQLVESGGGLVQAGGSLRLSCAASGSTFTYYAMGWYRQAPGKERELVAAITSNGGSTFYADSVKGRFTISRDNAKNTVYLQMNSLKPEDTAVYYCAAYRTHGPPRAIRFDYWGQGTQVTVSS,high polyreactivity
